From US20130136748A1 (Ablynx, published 2013)
Each block holds one binder with its values, some of them ahead of it.

How the values were obtained:
human HER4 [1] = target: T1, human HER4 (human, UniProt Q15303 26-1308); test: FACS, CHO-HER4
human HER2 [2] = target: T2, human HER2 (human, UniProt P04626 23-1255); test: FACS CHO-HER2, 222 nM
T2 construct: also called hHER2

human HER1 [3] = target: T3, human HER1 (human, UniProt P00533 25-1210); test: FACS CHO-HER1, 667 nM
T3 construct: also called EGFR; ErbB1

human HER1 [4] = target: T3, human HER1; test: FACS CHO-HER1, 222 nM
hHER3 full length [5] = target: T4, hHER3 full length (human, UniProt P21860 20-1342); test: FACS, 400 nM, competitor 17C08-biotin
T4 construct: On transfected CHO, CHO HER2/HER3, CHO EGFR/HER3 or CHO Flp-In cells; endogenous HER3 of MCF-7 and MDA-MB468 cells in the signalling assays; also called human HER3

human HER2 [6] = target: T2, human HER2; test: FACS CHO-HER2, 667 nM
human HER1 [7] = target: T3, human HER1; test: FACS CHO-HER1, 2000 nM
human HER4 [8] = target: T1, human HER4; test: FACS CHO-HER4, 222 nM
hHER3 full length [9] = target: T4, hHER3 full length; test: cell-based or functional assay
[10] = target: T5, cHER3ECD (Maccaca fascicularis HER3 extracellular domain) (Macaca fascicularis, UniProt P21860 20-643 (human entry)); test: ELISA, coated cHER3-ECD
T5 construct: also called cyno HER3ECD; cyno HER3-ECD
T5 chain: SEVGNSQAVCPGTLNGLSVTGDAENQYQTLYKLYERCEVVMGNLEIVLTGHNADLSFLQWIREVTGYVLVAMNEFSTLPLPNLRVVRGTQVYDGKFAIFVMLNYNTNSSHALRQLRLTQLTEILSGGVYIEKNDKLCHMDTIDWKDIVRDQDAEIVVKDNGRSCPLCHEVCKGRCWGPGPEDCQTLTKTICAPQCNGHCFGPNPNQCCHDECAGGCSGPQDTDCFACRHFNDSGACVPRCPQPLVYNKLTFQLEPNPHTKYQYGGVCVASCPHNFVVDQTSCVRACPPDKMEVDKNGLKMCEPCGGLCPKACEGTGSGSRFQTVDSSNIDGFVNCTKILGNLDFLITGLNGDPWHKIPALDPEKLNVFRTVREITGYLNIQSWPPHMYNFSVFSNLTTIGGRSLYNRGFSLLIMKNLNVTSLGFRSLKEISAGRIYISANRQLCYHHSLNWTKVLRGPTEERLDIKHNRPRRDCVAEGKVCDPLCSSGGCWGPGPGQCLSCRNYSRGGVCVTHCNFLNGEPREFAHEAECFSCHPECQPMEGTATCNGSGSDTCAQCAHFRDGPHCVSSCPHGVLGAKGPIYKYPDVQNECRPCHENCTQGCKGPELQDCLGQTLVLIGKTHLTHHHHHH

hHER3 full length [11] = target: T4, hHER3 full length; test: FACS, 400 nM, competitor 21B02-biotin
human HER4 [12] = target: T1, human HER4; test: FACS CHO-HER4, 667 nM
hHER3 full length [13] = target: T4, hHER3 full length; test: FACS, 400 nM, competitor 23F05-biotin
human HER2 [14] = target: T2, human HER2; test: FACS, CHO-HER2
[15] = target: T6, hHER3 ECD (human HER3 extracellular domain) (human, UniProt P21860 20-643); test: ELISA, coated hHER3-ECD
T6 construct: also called recombinant HER3-ECD

[16] = target: T7, human HER3-Fc (R&D Systems, 348-RB) (human, UniProt P21860 20-643); test: SPR, HER3-Fc captured by anti-Fc
T7 construct: Bought; also called hHER3-Fc; Fc-HER3; Fc part of the bought chimera not given, not described

human HER1 [17] = target: T3, human HER1; test: FACS, CHO-HER1
hHER3 full length [18] = target: T4, hHER3 full length; test: FACS, 400 nM, competitor 04C07-biotin
human HER4 [19] = target: T1, human HER4; test: FACS CHO-HER4, 2000 nM
hHER3 full length [20] = target: T4, hHER3 full length; test: FACS, 400 nM, competitor 04F10-biotin
human HER2 [21] = target: T2, human HER2; test: FACS CHO-HER2, 2000 nM
hHER3 full length [22] = target: T4, hHER3 full length; test: cell-based or functional assay; remark: listed apart in the source
hHER3 full length [23] = target: T4, hHER3 full length; test: FACS, 400 nM, competitor 18E08-biotin

T1 sequence (Q15303 26-1308 limits assumed): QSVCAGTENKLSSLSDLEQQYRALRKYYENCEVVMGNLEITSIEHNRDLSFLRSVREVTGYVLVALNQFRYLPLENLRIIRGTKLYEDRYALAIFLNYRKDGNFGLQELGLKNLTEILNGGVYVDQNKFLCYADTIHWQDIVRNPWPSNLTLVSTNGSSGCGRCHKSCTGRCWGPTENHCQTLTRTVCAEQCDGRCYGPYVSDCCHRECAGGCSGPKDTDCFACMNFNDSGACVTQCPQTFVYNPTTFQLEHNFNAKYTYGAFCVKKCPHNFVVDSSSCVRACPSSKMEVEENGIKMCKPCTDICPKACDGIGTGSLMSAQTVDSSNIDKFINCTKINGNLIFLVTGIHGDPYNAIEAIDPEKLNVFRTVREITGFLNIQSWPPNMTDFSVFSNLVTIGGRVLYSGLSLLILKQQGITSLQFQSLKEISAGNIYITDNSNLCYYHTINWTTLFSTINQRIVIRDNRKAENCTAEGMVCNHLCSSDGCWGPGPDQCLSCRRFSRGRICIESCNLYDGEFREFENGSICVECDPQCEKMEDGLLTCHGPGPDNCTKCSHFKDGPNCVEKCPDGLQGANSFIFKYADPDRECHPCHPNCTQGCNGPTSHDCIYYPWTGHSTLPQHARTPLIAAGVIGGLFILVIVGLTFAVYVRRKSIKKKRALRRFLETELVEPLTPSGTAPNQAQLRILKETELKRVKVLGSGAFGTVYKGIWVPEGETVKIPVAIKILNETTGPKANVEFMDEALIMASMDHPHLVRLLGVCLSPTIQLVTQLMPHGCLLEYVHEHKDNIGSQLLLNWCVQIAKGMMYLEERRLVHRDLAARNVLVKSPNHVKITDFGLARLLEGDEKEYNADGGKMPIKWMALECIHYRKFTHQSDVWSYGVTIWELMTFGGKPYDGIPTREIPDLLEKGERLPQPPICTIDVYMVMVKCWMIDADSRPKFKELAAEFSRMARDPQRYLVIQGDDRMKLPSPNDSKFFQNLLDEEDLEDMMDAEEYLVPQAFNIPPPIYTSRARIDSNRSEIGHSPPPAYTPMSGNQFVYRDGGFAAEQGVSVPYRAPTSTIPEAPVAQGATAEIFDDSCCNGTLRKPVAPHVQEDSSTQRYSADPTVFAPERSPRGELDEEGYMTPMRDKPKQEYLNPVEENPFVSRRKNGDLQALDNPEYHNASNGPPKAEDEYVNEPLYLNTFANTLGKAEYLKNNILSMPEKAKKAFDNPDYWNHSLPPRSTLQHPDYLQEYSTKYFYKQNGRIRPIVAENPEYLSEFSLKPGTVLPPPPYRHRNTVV

- binding result (human HER4 [1]): no binding (tested: 2000 nM)
- MCF (human HER2 [2]): 84
- MCF (human HER1 [3]): 92
- MCF (human HER1 [4]): 75
- % competition (hHER3 full length [5]): 15%
- MCF (human HER2 [6]): 79
- MCF (human HER1 [7]): 72
- MCF (human HER4 [8]): 96
- IC50, HRG1-β1 induced pHER3, MCF-7 (hHER3 full length [9]): 1.07e-09 M
- IC50, HRG1-β1 induced pHER3, MDA-MB468 (hHER3 full length [9]): 6.68e-09 M
- EC50 [10]: 930 pM
- % competition (hHER3 full length [11]): 2%
- MCF (human HER4 [12]): 103
- % competition (hHER3 full length [13]): 0%
- binding result (human HER2 [14]): no binding (tested: 2000 nM)
- EC50 [15]: 860 pM
- Kd [16]: 220 pM
- kon [16]: 1.2e+06 M⁻¹ s⁻¹
- binding result (human HER1 [17]): no binding (tested: 2000 nM)
- % competition (hHER3 full length [18]): 100%
- MCF (human HER4 [19]): 105
- % competition (hHER3 full length [20]): 0%
- MCF (human HER2 [21]): 154
- IC50, HRG1-β1 induced pAkt, MCF-7 (hHER3 full length [22]): 1.09e-08 M
- IC50, HRG1-β1 induced pERK1/2, MCF-7 (hHER3 full length [22]): 2.79e-08 M
- % competition (hHER3 full length [23]): 26%
B1: 04C07 (VHH)
VHH: EVQLVESGGGLVQAGGSLRLSCAASGFTFSSYPMSWVRQAPGKGPAWVSTVSPGGITTSYADSVKGRFTISRDNAKNTLYLQMNSLKPEDTAVYYCLRDLNNRGQGTQVTVSS
notes: also called HER3MS04C07; HER3MS004C07

- binding result (human HER4 [1]): no binding (tested: 2000 nM)
- MCF (human HER2 [2]): 109
- MCF (human HER1 [3]): 87
- MCF (human HER1 [4]): 101
- % competition (hHER3 full length [5]): 74%
- MCF (human HER2 [6]): 117
- MCF (human HER1 [7]): 97
- MCF (human HER4 [8]): 57
- IC50, HRG1-β1 induced pHER3, MCF-7 (hHER3 full length [9]): 1.03e-08 M
- IC50, HRG1-β1 induced pHER3, MDA-MB468 (hHER3 full length [9]): 7.03e-09 M
- EC50 [10]: 640 pM
- % competition (hHER3 full length [11]): 0%
- MCF (human HER4 [12]): 56
- % competition (hHER3 full length [13]): 0%
- binding result (human HER2 [14]): no binding (tested: 2000 nM)
- EC50 [15]: 720 pM
- Kd [16]: 10000 pM
- kon [16]: 26000 M⁻¹ s⁻¹
- binding result (human HER1 [17]): no binding (tested: 2000 nM)
- % competition (hHER3 full length [18]): 0%
- MCF (human HER4 [19]): 124
- % competition (hHER3 full length [20]): 0%
- MCF (human HER2 [21]): 65
- IC50, HRG1-β1 induced pAkt, MCF-7 (hHER3 full length [22]): 1.38e-07 M
- inhibition of HRG1-β1 induced pERK1/2, MCF-7 (hHER3 full length [22]): < 50 % inhibition
- % competition (hHER3 full length [23]): 97%
B2: 18G11 (VHH)
VHH: EVQLVESGGGLVQPGGSLRLSCAASGTLFKINAMGWYRQAPGKRRELVALITSSDTTDYAESVEGRFTISRDNTWNAVYLQMNSLKPEDTAVYYCHSDHYSMGVPEKRVIMYGQGTQVTVSS
notes: c-myc, His6-tagged form as expressed; also called HER3MS18G11; HER3MS018G11

- binding result (human HER4 [1]): no binding (tested: 2000 nM)
- MCF (human HER2 [2]): 160
- MCF (human HER1 [3]): 47
- MCF (human HER1 [4]): 62
- % competition (hHER3 full length [5]): 97%
- MCF (human HER2 [6]): 418
- MCF (human HER1 [7]): 58
- MCF (human HER4 [8]): 210
- IC50, HRG1-β1 induced pHER3, MCF-7 (hHER3 full length [9]): 8.98e-08 M
- IC50, HRG1-β1 induced pHER3, MDA-MB468 (hHER3 full length [9]): 5.38e-08 M
- EC50 [10]: 590 pM
- % competition (hHER3 full length [11]): 16%
- MCF (human HER4 [12]): 91
- % competition (hHER3 full length [13]): 17%
- binding result (human HER2 [14]): no binding (tested: 2000 nM)
- EC50 [15]: 620 pM
- binding result (human HER1 [17]): no binding (tested: 2000 nM)
- % competition (hHER3 full length [18]): 3%
- MCF (human HER4 [19]): 254
- % competition (hHER3 full length [20]): 77%
- MCF (human HER2 [21]): 1220
- IC50, HRG1-β1 induced pAkt, MCF-7 (hHER3 full length [22]): 7.24e-07 M
- inhibition of HRG1-β1 induced pERK1/2, MCF-7 (hHER3 full length [22]): < 50 % inhibition
- % competition (hHER3 full length [23]): 98%
B3: 17C08 (VHH)
VHH: EVQLVESGGGLMQAGDSLRLSCAASGRAFSSYALGWFRRAPGKERECVAATDRLGDNTYFPDSVKGRFTISRDNAKNTLYLQMNNLKPEDTAVYYCAAGAVRYGVSTSPMNYNYWGQGTQVTVSS
notes: also called 17C8
